Reference: patent publication US12365710B2, “HMGB1 protein derivatives for the removal of biofilms” (RESEARCH INSTITUTE AT NATIONWIDE CHILDREN'S HOSPITAL, priority 2018, dated 2025)

How the values were obtained:
[1] = system: UPEC biofilm; assay: in vitro disruption of established biofilms, CLSM and COMSTAT; assay type: cell-based, Uropathogenic E. coli; details: added at 24 h, 16 h exposure; 200 nM unless stated
Procedure: (§1) FIGS. 5A-5E: Anti-biofilm effect of HMGB1 variants on high priority bacterial pathogens. Indicated HMGB1 variants or antibodies against DNABII proteins (α-1HFEc 1gG, 1 μM) were added at 24 h to the respective preformed bacterial biofilms, in vitro. After 16 h of Incubation, biofilms were stained with LIVE/DEAD®, then visualized via confocal laser scanning microscopy. Images were analyzed by COMSTAT to calculate average thickness and comparison to control was plotted. (FIG. 5A) Full-length HMGB1 isoforms (200 nM unless otherwise indicated) added to UPEC, B. cenocepacia, NTHI, or ESKAPE pathogens. 800 nM rHMGB1 and 200 nM mHMGB1 were added for S. aureus (ESKAPE). 800 nM rHMGB1, 800 nM mHMGB1, or 3.3 μM of α-1HFEc 1gG were added for E. faecium (ESKAPE) and were incubated for 1 h as opposed to 16 h to avoid potential degradation by E. faecium proteases. (FIG. 5B) Representative images of UPEC biofilms incubated with increasing concentrations of rHMGB1. (FIG. 5C) Individual domains of HMGB1 (200 nM) were tested for anti-biofilm activity as above (dotted line indicates control values). Bars represent the SEM. Statistical significance compared to control was assessed with unpaired t-tests, *P<0.05. […] (FIGS. 5D-5E) HMGB1 and variants disrupt preformed Klebsiella pneumoniae biofilms. rHMGB1, HMGB1 C45S (mHMGB1), bovine HMGB1 (bHMGB1), B box, B Box C106S (mB Box), A Box, and A+B Box were added (200 nM) at 24 h to preformed K. pneumoniae biofilms. After 16 h of incubation, biofilms were stained with LIVE/DEAD®, then visualized via confocal laser scanning microscopy. Images were analyzed by COMSTAT to calculate average thickness and total biomass. Error bars represent the SEM. ***P<0.0001; ns=not significant.
(§2) HMGB1 disrupts pathogenic biofilms: To test the effect of HMGB1 on bacterial biofilms (FIG. 5), Applicant cloned (IMPACT®, NEB Ipswich, MA), expressed (in E. coli), and purified (heparin sepharose chromatography to >95% purity) tagless human recombinant HMGB1 (rHMGB1) and an engineered C45 S variant (mHMGB1) that mimics the reduced form of HMGB1. rHMGB1 readily forms an intramolecular disulfide bond between C23 and C45 that contributes to pro-inflammatory activity whereas mHMGB1 cannot. These HMGB1 isoforms were evaluated for ability to disrupt established biofilms (formed for 24 h prior to addition). After a 16 h exposure to a single dose of rHMGB1 (200 nM; ˜25-fold greater than typical sepsis serum concentration, but not able to directly induce sepsis), biofilms formed by a wide variety of high priority species were stained with LIVE/DEAD®, analyzed using confocal laser scanning microscopy (CLSM) and COMSTAT analysis and compared to control biofilms. […] Preliminary analysis of PTMs by LC-MS/MS analysis (MS Bioworks, LLC Ann Arbor, MI) indicated minimal modification of both rHMGB1 and nHMGB1 (<20% of the observed peptides had any given PTM, FIG. 1C). […] Thus, while there are intrinsic differences in sensitivity among pathogens, the biofilms formed by all of the tested high priority pathogens were susceptible to a single dose of these non-antimicrobial compounds.
HMGB1 domain structure and anti-biofilm activity: Applicant then produced recombinant HMGB1 truncation variants, of 1) the A Box, a self-contained DNA-binding domain (residues 1-89); 2) an A-B Boxes construct (lacks the C tail; residues 1-185); and 3) the B Box (residues 80 to 176, FIGS. 1A and 1C). […] Since only the B Box can modulate DNA bending, without being bound by theory, it was hypothesized that HMGB1 disrupts biofilms at least in part via DNA-binding/bending. As the B Box is reported to contain pro-inflammatory activity, mediated primarily through interactions with TLR4-MD2 that are dependent on residue C106, Applicant created a modified B Box variant (mB Box) with a C106S mutation (FIGS. 1A and 1C).

[2] = system: NTHI biofilm; assay: as above; assay type: cell-based, Nontypeable Haemophilus influenzae; details: 200 nM added at 24 h, 16 h exposure
Procedure: as §1, §2
HMGB1 domain structure and anti-biofilm activity: Applicant then produced recombinant HMGB1 truncation variants, of 1) the A Box, a self-contained DNA-binding domain (residues 1-89); 2) an A-B Boxes construct (lacks the C tail; residues 1-185); and 3) the B Box (residues 80 to 176, FIGS. 1A and 1C). […]

[3] = system: Klebsiella pneumoniae biofilms; assay: in vitro disruption of pre-formed biofilms, LIVE/DEAD, CLSM and COMSTAT; assay type: cell-based; details: for disruption of established K. pneumoniae biofilms (average thickness, biomass): 200 nM added at 24 h, 16 h incubation; for % reduction in average thickness (AT), mean±SE / % reduction in biomass (BM), mean±SE: 200 nM added to pre-formed biofilms at 24 h, read at 40 h, vs untreated KP biofilms
Procedure: as §1
An in vitro biofilm assay was used to test the effect of HMGB1 and its variants on established bacterial biofilms. Applicant expressed, (in E. coli) and purified >95% human recombinant full length HMGB1 (rHMGB1; 1-215), a C45S mutated variant (mHMGB1) and the HMGB1 domains A Box (1-89), A+B Boxes (1-176), B Box (80-179), and B Box C106S (mB Box) (FIG. 3). […] To evaluate the effect of HMGB1 and its variants as well as a commercially available native bovine HMGB1 (used as a control) on established bacterial biofilms, each protein was added (at 200 nM), to pre-formed Klebsiella pneumoniae biofilms after 24 h of growth. After a 16 h incubation (40 h total biofilm growth), the biofilms were stained with LIVE/DEAD® and analyzed using confocal laser scanning microscopy (CLSM) and COMSTAT analysis to calculate the average thickness and total biomass of the biofilms. […] The results of this study lead to a noteworthy observation that a single dose of these non-antimicrobial compounds was able to disrupt recalcitrant biofilms. In addition, the HMGB1 variants have disrupted every bacterial species tested to date, which includes Uropathogenic E. coli, Burkholderia cenocepacia, Nontypeable Haemophilus influenzae (FIG. 6). A single dose at this concentration released of bacteria from their protective shield makes them vulnerable to clearance by antibiotics and the immune system.
Klebsiella pneumoniae (KP), a common cause of nosocomial infections was used for all BBs disruption assays. Human recombinant full length HMGB1 (rHMGB1; 1-215), a C45S mutation variant (mHMGB1) and the HMGB1 domains A Box (1-89), B Box (90-176), AB Boxes (1-176), B-linker Box (80-179), and B-linker Box C106S were expressed (in E. coli) and purified to >95%. To evaluate the effect of rHMGB1 and the various domains on established BBs, each protein species (200 nM) was added to pre-formed BBs at 24 h. At 40 h the BBs were washed, stained with LIVE/DEAD®, visualized via confocal laser scanning microscopy and images were analyzed by COMSTAT to calculate average thickness and biomass.

[4] = system: B. cenocepacia biofilm; assay type: cell-based, Burkholderia cenocepacia; details: 200 nM added at 24 h, 16 h exposure
Procedure: Indicated HMGB1 variants or antibodies against DNABII proteins (α-1HFEc 1gG, 1 μM) were added at 24 h to the respective preformed bacterial biofilms, in vitro. After 16 h of Incubation, biofilms were stained with LIVE/DEAD®, then visualized via confocal laser scanning microscopy. Images were analyzed by COMSTAT to calculate average thickness and comparison to control was plotted. (FIG. 5A) Full-length HMGB1 isoforms (200 nM unless otherwise indicated) added to UPEC, B. cenocepacia, NTHI, or ESKAPE pathogens. 800 nM rHMGB1 and 200 nM mHMGB1 were added for S. aureus (ESKAPE). 800 nM rHMGB1, 800 nM mHMGB1, or 3.3 μM of α-1HFEc 1gG were added for E. faecium (ESKAPE) and were incubated for 1 h as opposed to 16 h to avoid potential degradation by E. faecium proteases. […] (FIG. 5C) Individual domains of HMGB1 (200 nM) were tested for anti-biofilm activity as above (dotted line indicates control values). Bars represent the SEM. Statistical significance compared to control was assessed with unpaired t-tests, *P<0.05. […] After 16 h of incubation, biofilms were stained with LIVE/DEAD®, then visualized via confocal laser scanning microscopy. Images were analyzed by COMSTAT to calculate average thickness and total biomass. Error bars represent the SEM. ***P<0.0001; ns=not significant.

Molecule | disruption of established UPEC biofilms [1] | disruption of established NTHI biofilms [2] | disruption of established K. pneumoniae biofilms (average thickness, biomass) [3] | disruption of established Bc biofilms [4] | % reduction in average thickness (AT), mean±SE [3] | % reduction in biomass (BM), mean±SE [3]
nHMGB1: native HMGB1 purified from calf thymus (Chondrex, Inc), commercially available, used as a control (protein, UniProt P10103 2-215, looked up) High mobility group protein B1: GKGDPKKPRGKMSSYAFFVQTCREEHKKKHPDASVNFSEFSKKCSERWKTMSAKEKGKFEDMAKADKARYEREMKTYIPPKGETKKKFKDPNAPKRPPSAFFLFCSEYRPKIKGEHPGLSIGDVAKKLGEMWNNTAADDKQPYEKKAAKLKEKYEKDIAAYRAKGKPDAAKKGVVKAEKSKKKKEEEEDEEDEEDEEEEEDEEDEEEEEDDDDE | equivalently disrupted | equivalently disrupted | equivalently disrupted | equivalently disrupted |  | 
AB Boxes: HMGB1 A and B domains (1-176), lacks the C tail (protein, UniProt P09429 1-176, looked up, fragment) MGKGDPKKPRGKMSSYAFFVQTCREEHKKKHPDASVNFSEFSKKCSERWKTMSAKEKGKFEDMAKADKARYEREMKTYIPPKGETKKKFKDPNAPKRPPSAFFLFCSEYRPKIKGEHPGLSIGDVAKKLGEMWNNTAADDKQPYEKKAAKLKEKYEKDIAAYRAKGKPDAAKKGVV | retained full anti-biofilm activity | retained full anti-biofilm activity | retained full anti-biofilm activity | retained full anti-biofilm activity | 64%±0.08 | 73%±0.02
B-Box: HMGB1 domain B Box (90-176), listed beside B-linker Box in Experiment No. 1 (protein, UniProt P09429 90-176, looked up, fragment) KDPNAPKRPPSAFFLFCSEYRPKIKGEHPGLSIGDVAKKLGEMWNNTAADDKQPYEKKAAKLKEKYEKDIAAYRAKGKPDAAKKGVV |  |  |  |  | 63%±0.1 | 68%±0.02
A Box: HMGB1 domain A Box (1-89) with C-terminal linker, lacks B box and C tail (protein, UniProt P09429 1-89, looked up, fragment, C-terminal linker, HMGB1 domain A Box (1-89) with C-terminal linker, lacks B box and C tail) MGKGDPKKPRGKMSSYAFFVQTCREEHKKKHPDASVNFSEFSKKCSERWKTMSAKEKGKFEDMAKADKARYEREMKTYIPPKGETKKKF | no significant effect | no significant effect | no significant effect | no significant effect |  | 
